Laboratory results: the supplement of paper PMC11246515
± gives the standard deviation of the averaged measurements.

Test: total protein half-life in vivo (active degradation + dilution); higher = more stable protein
[1] = E. coli NCM3722 delta-clpP delta-lon delta-hslV, growth: N-lim chemostat, doubling time 6 h
[2] = E. coli NCM3722 delta-clpP, growth: N-lim chemostat, doubling time 6 h
[3] = E. coli NCM3722 delta-hslV, growth: N-lim chemostat, doubling time 6 h
[4] = E. coli NCM3722 delta-lon, growth: N-lim chemostat, doubling time 6 h
[5] = E. coli NCM3722 delta-smpB, growth: N-lim chemostat, doubling time 6 h
[6] = wild type E. coli NCM3722, growth: C-lim chemostat, doubling time 6 h
[7] = wild type E. coli NCM3722, growth: C-lim chemostat, doubling time 12 h
[8] = wild type E. coli NCM3722, growth: N-lim chemostat, doubling time 6 h
[9] = wild type E. coli NCM3722, growth: N-lim chemostat, doubling time 12 h
[10] = wild type E. coli NCM3722, growth: P-lim chemostat, doubling time 6 h
[11] = wild type E. coli NCM3722, growth: P-lim chemostat, doubling time 12 h
[12] = wild type E. coli NCM3722, growth: C-lim chemostat, doubling time 3 h

Row | Sequence | total protein half-life in vivo [1] | total protein half-life in vivo [2] | total protein half-life in vivo [3] | total protein half-life in vivo [4] | total protein half-life in vivo [5] | total protein half-life in vivo [6] | total protein half-life in vivo [7] | total protein half-life in vivo [8] | total protein half-life in vivo [9] | total protein half-life in vivo [10] | total protein half-life in vivo [11] | total protein half-life in vivo [12]
1 | MGKHHWKIEKQPEWYVKAVRKTIAALPSGYAEAADWLDVTENALFNRLRADGDQIFPLGWAMVLQRAGGTHFIADAVAQSANGVFVSLPDVEDVDNADINQRLLEVIEQIGSYSKQIRSAIEDGVVEPHEKTAINDELYLSISKLQEHAALVYKIFCISESNDARECAAPGVVASIASGCGETNA | 2.93 ± 0.6 h | – | – | – | – | – | – | – | – | – | – | –
2 | MGKSIVVVSAVNFTTGGPFTILKKFLAATNNKENVSFIALVHSAKELKESYPWVKFIEFPEVKGSWLKRLHFEYVVCKKLSKELNATHWICLHDITANVVTKKRYVYCHNPAPFYKGILFREILMEPSFFLFKMLYGLIYKINIKKNTAVFVQQFWMKEKFIKKYSINNIIVSRPEIKLSDKSQLTDDDSQFKNNPSELTIFYPAVPRVFKNYELIISAARKLKEQSNIKFLLTISGTENAYAKYIISLAEGLDNVHFLGYLDKEKIDHCYNISDIVCFPSRLETWGLPLSEAKERGKWVLASDFPFTRETLGSYEKKAFFDSNNDDMLVKLIIDFKKGNLKKDISDANFIYRNENVLVGFDELVNFITEEH | 5.98 h | > 8 h | > 8 h | 7.3 ± 0.89 h | 5.6 ± 0.084 h | 5.53 h | 10.5 h | 5.39 ± 0.26 h | 12.4 ± 0.87 h | 6.42 h | 14.9 ± 1.6 h | –
3 | MGKTQPLPILITGGGRRIGLALAWHFINQKQPVIVSYRTHYPAIDGLINAGAQCIQADFSTNDGVMAFADEVLKSTHGLRAILHNASAWMAEKPGAPLADVLACMMQIHVNTPYLLNHALERLLRGHGHAASDIIHFTDYVVERGSDKHIAYAASKAALDNMTRSFARKLAPEVKVNSIAPSLILFNEHDDAEYRQQALNKSLMKTAPGEKEVIDLVDYLLTSCFVTGRSFPLDGGRHLR [P0AFS3] | 5.23 ± 0.36 h | 5.33 ± 1.2 h | 5.31 ± 0.45 h | 5.6 ± 0.53 h | 4.85 ± 0.43 h | 5.67 ± 0.13 h | 11.5 ± 1 h | 5.32 ± 0.17 h | 9.17 ± 0.28 h | 5.56 ± 0.12 h | 12.3 ± 0.39 h | 3.124 ± 0.021 h
4 | MGLCSRYKSLTCNSCSMHCQIMPEESPRLQYCANSCFCMWPEESSYFNRGVVEGILTKNHNARLSGYIFVDFSVSFLRLFLEKDWIDYLASTDMGIVLVSDRNMQSLANYWRKHNSAISAVIYNDDGLDVANEKIRQLFIGRYLSFTGGNTLTQMEFTIMGYMVSGYNPYQIAEVLDMDIRSIYAYKQRIEKRMGGKINELFIRSHSVQH | 4.5 ± 2.7 h | – | – | – | – | – | – | – | – | – | – | –
5 | MGLFDKLKSLVSDDKKDTGTIEIIAPLSGEIVNIEDVPDVVFAEKIVGDGIAIKPTGNKMVAPVDGTIGKIFETNHAFSIESDSGVELFVHFGIDTVELKGEGFKRIAEEGQRVKVGDTVIEFDLPLLEEKAKSTLTPVVISNMDEIKELIKLSGSVTVGETPVIRIKK | 5.14 ± 0.12 h | 4.93 ± 0.37 h | 4.53 ± 0.15 h | 4.82 ± 0.3 h | 4.415 ± 0.029 h | 5.34 ± 0.22 h | 10.6 ± 1.7 h | 4.48 ± 0.28 h | 7.87 ± 0.1 h | 5.64 ± 0.17 h | 11.1 ± 0.48 h | 3.29 ± 0.1 h
6 | MGLFNFVKDAGEKLWDAVTGQHDKDDQAKKVQEHLNKTGIPDADKVNIQIADGKATVTGDGLSQEAKEKILVAVGNISGIASVDDQVKTATPATASQFYTVKSGDTLSAISKQVYGNANLYNKIFEANKPMLKSPDKIYPGQVLRIPEE [P0ADE6] | 6.19 ± 0.023 h | 5.8 ± 0.83 h | 5.979 ± 0.053 h | 6.34 ± 0.072 h | 5.3 ± 0.33 h | 5.55 ± 0.29 h | 9.85 ± 1.1 h | 4.67 ± 0.066 h | 9.41 ± 1.2 h | 5.21 ± 0.41 h | 11.7 ± 0.15 h | 3.18 ± 0.085 h
7 | MGLMNAFDSQTEDSSPAIGRNLRSRPLARKKLSEMVEEELEQMIRRREFGEGEQLPSERELMAFFNVGRPSVREALAALKRKGLVQINNGERARVSRPSADTIIGELSGMAKDFLSHPGGIAHFEQLRLFFESSLVRYAAEHATDEQIDLLAKALEINSQSLDNNAAFIRSDVDFHRVLAEIPGNPIFMAIHVALLDWLIAARPTVTDQALHEHNNVSYQQHIAIVDAIRRHDPDEADRALQSHLNSVSATWHAFGQTTNKKK [P0A8W0] | 5.49 ± 0.12 h | 5.05 ± 0.14 h | 3.63 ± 0.045 h | 4.53 ± 0.93 h | 3.48 ± 0.66 h | 4.17 ± 0.12 h | 6.39 ± 0.4 h | 3.95 ± 0.16 h | 5.27 ± 0.066 h | 3.59 ± 0.14 h | 6.29 ± 0.19 h | 2.383 ± 0.0064 h
